The chains are these.
B1: human ICOS-hFc (homodimeric, bivalent) (Fc fusion)
chain: EINGSANYEMFIFHNGGVQILCKYPDIVQQFKMQLLKGGQILCDLTKTKGSGNTVSIKSLKFCHSQLSNNSVSFFLYNLDHSHANYYFCNLSIFDPPPFKVTLTGGYLHIYESQLCCQLKF
notes: also called hICOS-Fc; hICOS-hFc; not shown: human IgG1 Fc (IgG1 backbone)
B2: 35A9 (antibody, V domains shown)
VH: EVQLVESGGGLVKPGGSLKLSCAASGFTFSDYWMDWVRQAPGKGLEWVGNIDEDGSIAEYSPFVKGRFTISRDNVKNTLYLQMNSVKSEDTATYYCSRWGRFAFDSWGQGTLVTVSS
VL: DIVMTQSPSSLAVSAGDRVTINCKSSQSLLSGSFNYLTWYQQKTGQAPKLLIFYASTRHTGVPDRFMGSGSGTDFTLTINSFQTEDLGDYYCHHHYNAPPTFGPGTKLELR
notes: Armenian hamster monoclonal tested as IgG; also called hamster anti-ICOS 35A9
B3: 2M13 (antibody, V domains shown)
VH: EVQLQQSGAELVRPGAVVKLSCKASGFDIKDYYMHWVQQRPEQGLEWIGWIDPENGNAVYDPQFQGKASITADTSSNTAYLQLSSLTSEDTAVYYCASDYYGSKGYLDVWGAGTTVTVSS
VL: QIVLTQSPTIMSASPGEKVTITCSASSSVSYMHWFQQKPGTSPKLWIYSTSNLASGVPARFGGSRSGTSYSLTISRMEAEDAATYYCQQRSSYPFTFGSGTKLEIK
notes: Purified mouse monoclonal from a hybridoma; also called anti-ICOS antibody (2M13); anti-ICOS mAb 2M13
B4: 2M19 (antibody, V domains shown)
VH: EVQLQQSGAELVRSGASVKLSCTTSAFNIIDYYMHWVIQRPEQGLEWIAWIDPENGDPEYAPKFQDKATMTTDTSSNTAYLQLSSLTSEDTAVYYCTAWRGFAYWGQGTLVTVSA
VL: DVVMTQTPLSLPVSLGDQASISCRSSQSLVHSNGNTYLHWYLQKPGQSPKLLIYKVSNRFSGVPDRFSGSGSGTDFTLKISRVEAEDLGVYFCSQSIHVPPTFGGGTKLEIK
notes: Purified mouse monoclonal from a hybridoma; also called anti-ICOS mAb 2M19

The target in test [1] is T1, hICOSL-mG2a (human; mouse, UniProt O75144 19-256, limits assumed).
T1 construct: also called hICOSL-mG2a Fc; not shown: mouse IgG2a Fc
T1 sequence (looked up): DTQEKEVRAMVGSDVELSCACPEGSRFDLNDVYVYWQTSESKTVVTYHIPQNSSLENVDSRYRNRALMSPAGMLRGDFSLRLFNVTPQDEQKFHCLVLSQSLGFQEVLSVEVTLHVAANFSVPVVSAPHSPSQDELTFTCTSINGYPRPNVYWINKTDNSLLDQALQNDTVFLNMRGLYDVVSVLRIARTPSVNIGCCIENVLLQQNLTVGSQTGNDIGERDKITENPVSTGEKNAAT
The test can be described thus: BLI, bivalent binding to homodimeric ICOS-Fc.

In test [2] the target is B1. The test can be described thus: BLI (Octet RED96), full-length IgG vs homodimeric ICOS-Fc (avid); bivalent (homodimeric) hICOS, avid; not monomeric hICOS. As for the experimental part: (§1) Affinity measurements were conducted using Bio-Layer Interferometry (BLI) technology (ForteBio Octet® RED96). The monovalent affinities were generated with IgG versions of the antibodies with monovalent, heterodimeric forms of the ICOS receptor. The avid affinities were generated using full-length IgGs against homodimeric forms of the ICOS receptor.
(In BLI a coated tip is dipped into the sample, and binding shifts an interference pattern.)

For test [3], the target named is T2, monovalent, heterodimeric human ICOS-Fc (human).
T2 construct: Make-up of the heterodimer is not described; also called Monomeric hICOS; monomeric form of human ICOS; not shown: The human IgG1 Fc fused to ICOS, and the partner Fc chain of the heterodimer
T2 chain: B1 chain
The test can be described thus: BLI (Octet RED96), IgG vs monovalent heterodimeric ICOS-Fc. On the procedure:
as §1

For test [4], the target named is T3, mouse ICOS (full length, on cells) (mouse, UniProt Q9WVS0 21-200).
T3 construct: also called CHO-mICOS; mouse ICOS+ CHO cells
T3 sequence: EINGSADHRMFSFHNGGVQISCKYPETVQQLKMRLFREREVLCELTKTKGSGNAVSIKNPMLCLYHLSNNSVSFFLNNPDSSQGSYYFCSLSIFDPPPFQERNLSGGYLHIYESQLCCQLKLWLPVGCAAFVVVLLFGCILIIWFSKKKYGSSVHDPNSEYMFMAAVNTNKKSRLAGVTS
The test can be described thus: flow cytometry on ICOS+ CHO cells. An excerpt:
To assess specificity, binding to human ICOS+ CHO cells and mouse ICOS+ CHO cells was individually analyzed by flow cytometry. As a control to screen out pan-reactive antibodies, staining on CHO cells lacking ICOS receptor expression was also examined. All of the selected antibodies bound to human and mouse ICOS+ CHO cells, and not to CHO cells lacking ICOS expression.

The target of test [5] is B1. Nature of the test: BLI (Octet RED96), full-length IgG vs homodimeric ICOS-Fc (avid). As for the experimental part: as §1
Test [6] has as its target T4, mouse BTLA Fc fusion (dimeric) (mouse, UniProt Q7TSA3 30-183).
T4 construct: not shown: Fc part not described
T4 sequence (looked up): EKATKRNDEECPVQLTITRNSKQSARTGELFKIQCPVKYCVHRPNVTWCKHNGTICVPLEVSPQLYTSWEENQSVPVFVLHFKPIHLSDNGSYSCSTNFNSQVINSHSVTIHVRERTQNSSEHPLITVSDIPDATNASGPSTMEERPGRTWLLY
Nature of the test: binding to dimeric Fc fusions of CD28 family members. As for the experimental part: (§2) To further assess the specificity of the anti-ICOS antibodies, the antibodies were screened for binding to additional members of the CD28 protein family (CD28, BTLA, PD-1 and CTLA-4). […] Specifically, binding to Fc fusions (of CD28, BTLA, PD-1 and CTLA-4) in dimeric forms was evaluated, and no binding was observed. For a subset of the CD28 family members, mouse or human protein was over-expressed on the surface of HEK293 and CHOK1 cells. No binding of antibody above background relative to untransduced parental cells was observed.

For test [7], the target named is T5, human CTLA-4 Fc fusion (dimeric) (human, UniProt P16410 37-162).
T5 construct: not shown: Fc part not described
T5 sequence (looked up): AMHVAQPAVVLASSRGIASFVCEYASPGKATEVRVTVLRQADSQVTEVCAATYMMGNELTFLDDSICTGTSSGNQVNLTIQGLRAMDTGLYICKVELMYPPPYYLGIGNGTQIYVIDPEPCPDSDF
The description is as above. As for the experimental part: as §2

The target in test [8] is T6, mouse PD-1 Fc fusion (dimeric) (mouse, UniProt Q02242 25-167).
T6 construct: not shown: Fc part not described
T6 sequence (looked up): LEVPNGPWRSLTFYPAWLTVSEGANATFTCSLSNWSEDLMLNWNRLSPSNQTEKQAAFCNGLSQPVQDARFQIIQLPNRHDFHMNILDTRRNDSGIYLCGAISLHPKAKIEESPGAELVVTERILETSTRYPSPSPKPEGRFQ
The test is described as above. On the procedure:
as §2

For test [9], the target named is T7, human BTLA Fc fusion (dimeric) (human, UniProt Q7Z6A9 31-157).
T7 construct: not shown: Fc part not described
T7 sequence (looked up): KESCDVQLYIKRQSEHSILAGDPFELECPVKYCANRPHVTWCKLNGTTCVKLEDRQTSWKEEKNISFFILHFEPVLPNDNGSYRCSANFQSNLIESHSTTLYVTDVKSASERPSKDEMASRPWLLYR
Described as above. As for the experimental part: as §2

In test [10] the target is T8, mouse CTLA-4 Fc fusion (dimeric) (mouse, UniProt P09793 36-162).
T8 construct: not shown: Fc part not described
Described as above. On the procedure: as §2

In test [11] the target is T9, human PD-1 Fc fusion (dimeric) (human, UniProt Q15116 25-167).
T9 construct: not shown: Fc part not described
T9 sequence (Q15116 25-167): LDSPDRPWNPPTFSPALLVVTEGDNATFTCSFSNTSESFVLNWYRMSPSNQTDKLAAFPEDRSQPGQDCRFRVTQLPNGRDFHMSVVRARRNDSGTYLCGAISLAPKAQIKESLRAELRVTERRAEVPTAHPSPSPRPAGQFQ
The test is described as above. On the procedure:
as §2

The target in test [12] is T10, mouse CD28 Fc fusion (dimeric) (mouse, UniProt P31041 20-150).
T10 construct: not shown: Fc part not described
T10 sequence (looked up): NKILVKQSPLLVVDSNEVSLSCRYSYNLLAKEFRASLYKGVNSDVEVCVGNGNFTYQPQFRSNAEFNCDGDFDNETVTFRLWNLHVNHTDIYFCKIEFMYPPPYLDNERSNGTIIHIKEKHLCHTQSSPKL
Described as above. On the procedure:
as §2

Test [13] concerns the target T11, human CD28 Fc fusion (dimeric) (human, UniProt P10747 19-152).
T11 construct: not shown: Fc part not described
The description is as above. On the procedure:
as §2

For test [14], the target named is T12, cynomolgus ICOS-Fc (homodimeric, bivalent) (cynomolgus monkey, UniProt Q9Y6W8 21-140 (human entry)).
T12 construct: also called cynoICOS-Fc; cyno ICOS-Fc; not shown: human IgG1 Fc (IgG1 backbone)
T12 chain: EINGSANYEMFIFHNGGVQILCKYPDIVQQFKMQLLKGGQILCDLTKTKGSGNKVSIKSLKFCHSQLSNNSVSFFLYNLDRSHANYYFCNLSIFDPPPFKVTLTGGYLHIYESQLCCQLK
The test can be described thus: BLI, bivalent binding to homodimeric ICOS-Fc. As for the experimental part: (§3) Cross-reactivity measurements were conducted using BLI technology with antibody panels being screened for binding to human, mouse, and cynomolgus ICOS-Fc fusions (homodimeric, bivalent forms).

In test [15] the target is B1. The test can be described thus: BLI, bivalent binding to homodimeric ICOS-Fc. As for the experimental part: as §3
The target in test [16] is T13, mouse ICOS-hFc (homodimeric, bivalent) (mouse; human, UniProt Q9WVS0 21-142).
T13 construct: also called mICOS-hFc; mouse ICOS-Fc; not shown: human IgG1 Fc (IgG1 backbone)
T13 sequence: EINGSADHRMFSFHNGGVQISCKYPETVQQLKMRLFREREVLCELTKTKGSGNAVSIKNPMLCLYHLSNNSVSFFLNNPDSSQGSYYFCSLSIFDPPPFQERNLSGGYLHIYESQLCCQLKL
Nature of the test: BLI. On the procedure: as §3

For test [17], the target named is T14, human ICOS (full length, on cells) (human, UniProt Q9Y6W8 21-199).
T14 construct: also called CHO-hICOS; human ICOS+ CHO cells
T14 sequence: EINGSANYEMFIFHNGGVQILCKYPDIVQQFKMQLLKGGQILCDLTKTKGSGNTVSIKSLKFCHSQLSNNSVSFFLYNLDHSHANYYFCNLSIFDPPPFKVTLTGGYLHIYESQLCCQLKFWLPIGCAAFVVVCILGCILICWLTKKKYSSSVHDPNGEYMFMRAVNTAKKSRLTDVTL
The test can be described thus: cell-based ELISA on fixed, permeabilised CHO cells expressing human ICOS, chemiluminescence (RLU). On the procedure: Chinese Hamster ovary (CHO) cells stably transfected with ICOS overexpressing plasmid (CHO-ICOS) or control plasmid (CHO-vector) were used to screen positive clones from the peptide ELISA assay using established protocols. Briefly, cells grown in 96 well plates were fixed and permeabilized using 10% formalin with 0.1% Triton X-100. Following blocking, cells were incubated with primary antibody, followed by HRP-conjugated anti-mouse antibody. Detection was carried out using chemiluminescence substrate. Commercial anti-ICOS antibody, SP98 (Spring Biosciences) was used as a positive control and mouse IgG1 was used as a negative control for the assay.
(ELISA stands for enzyme-linked immunosorbent assay.)

These results are taken from patent US20180371091A1 (JOUNCE THERAPEUTICS, published 2018).

For orientation: koff means the first-order rate constant of dissociation. Broadly, the kon is the second-order rate constant of association. Lower therefore signals slow association.

T11 sequence (P10747 19-152): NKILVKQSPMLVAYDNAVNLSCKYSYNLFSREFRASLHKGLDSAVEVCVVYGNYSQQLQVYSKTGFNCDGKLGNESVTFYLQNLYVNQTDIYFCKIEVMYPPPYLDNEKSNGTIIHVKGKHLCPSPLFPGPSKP

As to B1, in test [1], the Kd was determined as 0.362 nM, the koff was found to be 0.000341 s⁻¹ and the kon amounted to 941000 M⁻¹ s⁻¹.
For B2, the Kd was less than 0.001 nM in test [2], 2.45 nM in test [3], less than 0.001 nM in test [14] and less than 0.001 nM in [15]. Further, the koff in test [3] was 0.000438 s⁻¹; in [5] it was less than 1e-07 s⁻¹; in test [14], less than 1e-07 s⁻¹; in test [15], less than 1e-07 s⁻¹. Further, the on-rate constant (kon) in [3] is 178000 M⁻¹ s⁻¹; in test [5], 625000 M⁻¹ s⁻¹; in test [14] it was 740000 M⁻¹ s⁻¹; in test [15] it was 1.01e+06 M⁻¹ s⁻¹. Also, the binding result is on record as “binds” in test [4]; “no binding” in test [6]; “no binding” in test [7]; “no binding” in [8]; “no binding” in test [9]; “no binding” in test [10]. The binding result in test [11] is listed as “no binding”; in test [12], “no binding”; in test [13] it was “no binding”; in test [16] it was “binds”.
Take B3: in [17], the binding result is listed as “binds”.
B4: the binding result in test [17] is recorded as “binds”.
